Results published in paper PMC10505919.

Molecular target: Chlamydomonas reinhardtii RabL2, wild type (Chlamydomonas reinhardtii)
Assay: ITC

## Chlamydomonas reinhardtii CEP19 residues 1-208 (domain or fragment)
  Kd: 12.7 µM
